In patent US11278600B2, “Human alpha-galactosidase variants” (Codexis, Inc., priority 2014, dated 2022):

Key:
Type in all cases: biochemical
[1] = HTP-analysis of supernatants pretreated with base (MUGal hydrolysis); conditions: activity of the variant/activity of Rd3BB (SEQ ID NO: 13); challenge at pH 9.7
Method in brief: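 Fluorescence of released 4-MU (Ex 355 nm, Em 448 nm) after carbonate quench reports MUGal hydrolysis by GLA variants secreted from INVSc1 yeast. Before the acidic (pH 4.3-4.8) 30-180 min reaction at 37° C, supernatants had been pre-incubated at pH 7.0-9.7 for 1-18 h at 37° C.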

[2] = HTP-analysis of supernatants pretreated with acid (MUGal hydrolysis); conditions: activity of the variant/activity of Rd3BB (SEQ ID NO: 13); challenge at pH 3.7
Method in brief: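 Supernatants from INVSc1 yeast secreting GLA variants were challenged at 37° C. for 1-3 h in McIlvaine buffer at pH 3.3-4.3. Residual activity was then measured on 4 mM MUGal substrate stock at pH 4.8 with citrate buffer pH 4.3, over 30-180 min at 37° C. Reactions were quenched with sodium carbonate and read by fluorescence (Ex 355/Em 448 nm).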

[3] = HTP-analysis of yeast culture supernatants, no challenge (MUGal hydrolysis); conditions: activity of the variant/activity of Rd3BB (SEQ ID NO: 13)
Method in brief: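 Activity read as 4-methylumbelliferyl α-D-galactopyranoside hydrolysis: fluorescence (355/448 nm) after sodium carbonate stop, following 30-180 min at 37° C with 2 mM MUGal stock at pH 4.6–4.8. Enzyme source is unchallenged culture supernatant of INVSc1 yeast expressing GLA variants, grown 66-84 h at 30° C.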

Molecule | Relative Activity of GLA Variants After Challenge at pH 9.7 [1] | Relative Activity of GLA Variants After Challenge at pH 3.7 [2] | Relative Activity of GLA Variants After No Challenge (NC) [3]
520 (protein, Synthetic Polypeptide sequence of Variant No. 520 of mature Human GLA) LDNGLARTPTMGWLHWERFMCNLDCQEEPDSCISEKLFMEMAERMVSEGWKDAGYEYLCIDDCWMAPQRDSEGRLQSDPQRFPHGIRQLANHVHSKGLKLGIYADVGNKTCAGFPGSFGYYDIDAQTFADWGVDLLKFDGCYCDSLENLADGYKHMSLALNRTGRSIVYSCEWPLYMWPFQKPNYTEIRQYCNHWRNFADIDDSWASIKSILDWTSRNQERIVDVAGPGGWNDPDMLVIGNFGLSWDQQVTQMALWAIMAAPLFMSNDLRHISPQAKALLQDKDVIAINQDPLGKQGYQLRKGDNFEVWERPLSGDAWAVAIINRQEIGGPRSYTIPVASLGKGVACNPACFITQLLPVKRQLGFYNWTSRLKSHINPTGTVLLQLENTMQMSLKDLL | + (+ = 1.5 to 5 relative activity over Rd3BB (SEQ ID NO: 13)) | + (+ = 1.5 to 5 relative activity over Rd3BB (SEQ ID NO: 13)) | + (+ = 1.5 to 5 relative activity over Rd3BB (SEQ ID NO: 13))
588 (protein, Synthetic Polypeptide sequence of Variant No. 588 of mature Human GLA) LDNGLARTPTMGWLHWERFMCNLDCQEEPDSCISEKLFMEMAERMVSEGWKDAGYEYLCIDDCWMAPQRDSEGRLQADPQRFPHGIRQLANHVHSAGLKLGIYADVGNKTCAGFPGSFGYYDIDAQTFADWGVDLLKFDGCYCDSLENLADGYKHMSLALNRTGRSIVYSCEWPLYMWPFQKPNYTEIRQYCNHWRNFADIDDSWASIKSILDWTSRNQERIVDVAGPGGWNDPDMLVIGNFGLSWDQQVTQMALWAIMAAPLFMSNDLRHISPQAKALLQDKDVIAINQDPLGKQGYQLRKGDNFEVWERPLSGDAWAVAIINRQEIGGPRSYTIPVASLGKGVACNPACFITQLLPVKRQLGFYNWTSRLKSHINPTGTVLLQLENTMQMSLKDLL | + (+ = 1.5 to 5 relative activity over Rd3BB (SEQ ID NO: 13)) | + (+ = 1.5 to 5 relative activity over Rd3BB (SEQ ID NO: 13)) | + (+ = 1.5 to 5 relative activity over Rd3BB (SEQ ID NO: 13))
585 (protein, Synthetic Polypeptide sequence of Variant No. 585 of mature Human GLA) LDNGLARTPTMGWLHWERFMCNLDCQEEPDSCISEKLFMEMAERMVSEGWKDAGYEYLCIDDCWMAPQRDSEGRLQADPQRFPHGIRQLANHVHSKGLKLGIYADVGNKTCAGFPGSFGYYDIDAQTFADWGVDLLKFDGCYCDSLENLADGYKHMSLALNRTGRSIVYSCEWPLYMWPFQKPNYTEIRQYCNHWRNFADIDDSWASIKKILDWTSRNQERIVDVAGPGGWNDPDMLVIGNFGLSWDQQVTQMALWAIMAAPLFMSNDLRHISPQAKALLQDKDVIAINQDPLGKQGYQLRKGDNFEVWERPLSGDAWAVAIINRQEIGGPRSYTIPVASLGKGVACNPACFITQLLPVKRQLGFYNWTSRLKSHINPTGTVLLQLENTMQMSLKDLL | ++ (++ = >5 to 10 relative activity over Rd3BB (SEQ ID NO: 13)) | + (+ = 1.5 to 5 relative activity over Rd3BB (SEQ ID NO: 13)) | + (+ = 1.5 to 5 relative activity over Rd3BB (SEQ ID NO: 13))
589 (protein, Synthetic Polypeptide sequence of Variant No. 589 of mature Human GLA) LDNGLARTPTMGWLHWERFMCNLDCQEEPDSCISEKLFMEMAERMVSEGWKDAGYEYLCIDDCWMAPQRDSEGRLQADPQRFPHGIRQLANHVHSWGLKLGIYADVGNKTCAGFPGSFGYYDIDAQTFADWGVDLLKFDGCYCDSLENLADGYKHMSLALNRTGRSIVYSCEWPLYMWPFQKPNYTEIRQYCNHWRNFADIDDSWASIKSILDWTSRNQERIVDVAGPGGWNDPDMLVIGNFGLSWDQQVTQMALWAIMAAPLFMSNDLRHISPQAKALLQDKDVIAINQDPLGKQGYQLRKGDNFEVWERPLSGDAWAVAIINRQEIGGPRSYTIPVASLGKGVACNPACFITQLLPVKRQLGFYNWTSRLKSHINPTGTVLLQLENTMQMSLKDLL | + (+ = 1.5 to 5 relative activity over Rd3BB (SEQ ID NO: 13)) | + (+ = 1.5 to 5 relative activity over Rd3BB (SEQ ID NO: 13)) | + (+ = 1.5 to 5 relative activity over Rd3BB (SEQ ID NO: 13))
584 (protein, Synthetic Polypeptide sequence of Variant No. 584 of mature Human GLA) LDNGLARTPTMGWLHWERFMCNLDCQEEPDSCISEKLFMEMAERMVSEGWKDAGYEYLCIDDCWMAPQRDSEGRLQADPQRFPHGIRQLANHVHSKGLKLGIYADVGNKTCAGFPGSFGYYDIDAQTFADWGVDLLKFDGCYCDSLENLADGYKHMSLALNRTGRSIVYSCEWPLYMWPFQKPNYTEIRQYCNHWRNFADIDDSWASIKEILDWTSRNQERIVDVAGPGGWNDPDMLVIGNFGLSWDQQVTQMALWAIMAAPLFMSNDLRHISPQAKALLQDKDVIAINQDPLGKQGYQLRKGDNFEVWERPLSGDAWAVAIINRQEIGGPRSYTIPVASLGKGVACNPACFITQLLPVKRQLGFYNWTSRLKSHINPTGTVLLQLENTMQMSLKDLL | ++ (++ = >5 to 10 relative activity over Rd3BB (SEQ ID NO: 13)) | + (+ = 1.5 to 5 relative activity over Rd3BB (SEQ ID NO: 13)) | + (+ = 1.5 to 5 relative activity over Rd3BB (SEQ ID NO: 13))
586 (protein, Synthetic Polypeptide sequence of Variant No. 586 of mature Human GLA) LDNGLARTPTMGWLHWERFMCNLDCQEEPDSCISEKLFMEMAERMVSEGWKDAGYEYLCIDDCWMAPQRDSEGRLQADPQRFPHGIRQLANHVHSKGLKLGIYADVGNKTCAGFPGSFGYYDIDAQTFADWGVDLLKFDGCYCDSLENLADGYKHMSLALNRTGRSIVYSCEWPLYMWPFQKPNYTEIRQYCNHWRNFADIDDSWASIKNILDWTSRNQERIVDVAGPGGWNDPDMLVIGNFGLSWDQQVTQMALWAIMAAPLFMSNDLRHISPQAKALLQDKDVIAINQDPLGKQGYQLRKGDNFEVWERPLSGDAWAVAIINRQEIGGPRSYTIPVASLGKGVACNPACFITQLLPVKRQLGFYNWTSRLKSHINPTGTVLLQLENTMQMSLKDLL | ++ (++ = >5 to 10 relative activity over Rd3BB (SEQ ID NO: 13)) | ++ (++ = >5 to 10 relative activity over Rd3BB (SEQ ID NO: 13)) | + (+ = 1.5 to 5 relative activity over Rd3BB (SEQ ID NO: 13))
587 (protein, Synthetic Polypeptide sequence of Variant No. 587 of mature Human GLA) LDNGLARTPTMGWLHWERFMCNLDCQEEPDSCISEKLFMEMAERMVSEGWKDAGYEYLCIDDCWMAPQRDSEGRLQADPQRFPHGIRQLANHVHSKGLKLGIYADVGNKTCAGFPGSFGYYDIDAQTFADWGVDLLKFDGCYCDSLENLADGYKHMSLALNRTGRSIVYSCEWPLYMWPFQKPNYTEIRQYCNHWRNFADIDDSWASIKRILDWTSRNQERIVDVAGPGGWNDPDMLVIGNFGLSWDQQVTQMALWAIMAAPLFMSNDLRHISPQAKALLQDKDVIAINQDPLGKQGYQLRKGDNFEVWERPLSGDAWAVAIINRQEIGGPRSYTIPVASLGKGVACNPACFITQLLPVKRQLGFYNWTSRLKSHINPTGTVLLQLENTMQMSLKDLL | ++ (++ = >5 to 10 relative activity over Rd3BB (SEQ ID NO: 13)) | + (+ = 1.5 to 5 relative activity over Rd3BB (SEQ ID NO: 13)) | + (+ = 1.5 to 5 relative activity over Rd3BB (SEQ ID NO: 13))
590 (protein, Synthetic Polypeptide sequence of Variant No. 590 of mature Human GLA) LDNGLARTPTMGWLHWERFMCNLDCQEEPDSCISEKLFMEMAERMVSEGWKDAGYEYLCIDDCWMAPQRDSEGRLQADPQRFPHGIRQLANHVHSKGLKLGIYADVGNKTCAGFPGSFGYYDIDAQTFADWGVDLLKFDGCYCDSLENLADGYKHMSLALNRTGRSIVYSCEWPLYMWMFQKPNYTEIRQYCNHWRNFADIDDSWASIKSILDWTSRNQERIVDVAGPGGWNDPDMLVIGNFGLSWDQQVTQMALWAIMAAPLFMSNDLRHISPQAKALLQDKDVIAINQDPLGKQGYQLRKGDNFEVWERPLSGDAWAVAIINRQEIGGPRSYTIPVASLGKGVACNPACFITQLLPVKRQLGFYNWTSRLKSHINPTGTVLLQLENTMQMSLKDLL | + (+ = 1.5 to 5 relative activity over Rd3BB (SEQ ID NO: 13)) | + (+ = 1.5 to 5 relative activity over Rd3BB (SEQ ID NO: 13)) | + (+ = 1.5 to 5 relative activity over Rd3BB (SEQ ID NO: 13))
